# Results taken from patent US20250161441A1, “MEDICINE COMPRISING COMBINATION OF ANTI-MUTANT-CALR ANTIBODY AND ANOTHER DRUG” (JUNTENDO EDUCATIONAL FOUNDATION, priority 2022, published 2025).
# Test system: Del 52 type or Ins 5 type mutant CALR protein
# Assay: Verification of recognition of mutant CALR proteins (SDS-PAGE / immunoblot of culture supernatants)
# Type: binding, human
# Conditions: culture supernatants of UT-7/TPO cells expressing FLAG-tagged Del 52 or Ins 5 mutant CALR
# Description: UT-7/TPO cells expressing a Del 52 type or Ins 5 type mutant CALR having a FLAG-tag inserted downstream of the signal sequence at the N-terminus were cultured, and culture supernatants containing the secreted mutant CALR proteins were prepared by centrifugation (1,600 g×5 mins, 4° C.). The culture supernatants were heat-treated in the presence of SDS and a reducing agent, then resolved on a gel by SDS polyacrylamide electrophoresis, electrically transferred on a polyvinylidene difluoride (PVDF) membrane, and reacted with a TBS-T solution containing 5% skim milk at room temperature for 1 hour, followed by reaction with a 5% BSA/TBS-T solution containing a rat clone B3, C6, or G1 antibody or mouse anti-[…] tag antibody (FUJIFILM Wako Pure Chemical Corporation) at 4° C. overnight. After washing with a TBS-T solution, the reaction products were each reacted with a 5% skim milk/TBS-T solution containing a peroxidase-labeled goat anti-rat IgG antibody (Jackson Immuno Research Inc.) or a peroxidase-labeled goat anti-mouse IgG antibody (Jackson Immuno Research Inc.) at room temperature for 1 hour. After washing with a TBS-T solution, the PVDF membranes were reacted with a peroxidase luminescence reagent. The resulting signals were detected using a FUSION image pickup apparatus.
row,Molecule,Recognition of full-length and cleaved mutant CALR proteins
1,"C6: rat monoclonal anti-mutant CALR antibody from hybridoma clone C6, VH SEQ ID NO: 8, VL SEQ ID NO: 9 (antibody, listed as Rattus norvegicus, V domains shown) VH: QVQLQQSGAELVKPGSSVKISCKASGYTFTSYFVHWIKQQPGDGLEWIGWIYPGDGDTEYNHKFNGKSTLTADRSSSTAYMQLSSLTSEDSAVYFCARGNYYDGREVMDAWGQGASVTVSS VL: DVVLTQTPPTLSATIGQSVSISCRSSQSLLDSDGETYLNWLLQRPGQSPQLLIYSVSNLESGVPNRFSGSGSETDFTLKISGMEAEDLGVYYCMQATHGPYTFGAGTKLELK",recognize the full-length and cleaved mutant CALR proteins
2,"G1: rat monoclonal anti-mutant CALR antibody from hybridoma clone G1, VH SEQ ID NO: 10, VL SEQ ID NO: 11 (antibody, listed as Rattus norvegicus, V domains shown) VH: QVQLQQSGAELVKPGSSVKISCKASGYTFTSYFVHWIKQQPGDGLEWIGWIYPGDGDTEYNQKFNGKATLTADRSSSTAYMQLSSLTSEDSAVYFCARGNYYDGREVMDAWGQGASVTVSS VL: DVVLTQTPPTLSATIGQSVSISCRSSQSLLDSDGETYLNWLLQRPGQCPQLLIYSVSNLESGVPNRFSGSGSETDFTLKISGVEAEDLGVYYCMQGTHGPYTFGAGTKLELK",recognize the full-length and cleaved mutant CALR proteins
3,"B3: rat monoclonal anti-mutant CALR antibody from hybridoma clone B3, VH SEQ ID NO: 6, VL SEQ ID NO: 7 (antibody, listed as Rattus norvegicus, V domains shown) VH: QVQLQQSGAELVKPGSSVKISCKASGYTFTRNFIHWIKQQPGNGLEWIGWIFPGDGDTEYNQKFNGKATLTADKSSSTAYMQLSSLTSEDSAVYFCARGNYNYEYFDYWGQGVMVTVSS VL: DIQMTQSPASLSASLGETVSIECLASEDIYSYLAWYQQKPGKSPQLLIFAANRLQDGVPSRFSGSGSGTQFSLKISGMQPEDEGDYFCLQGSKFPYTFGPGTKLELN",recognize the full-length and cleaved mutant CALR proteins
